Assay results: the supplement of paper PMC9732359
± gives the uncertainty stated by the source.

Experiment: protein stability index of a GFP-peptide fusion (yeast GPS) (PSI 1-4); higher = more stable; sorted into four equal gates, so the index is relative within each strain
Procedure, shortened: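 Peptides tiling yeast proteins in 17-residue segments were fused downstream of GFP, with Cherry expressed from the same plasmid. As a pooled library in yeast, mid-log cultures grown in leucine-free medium were sorted into four equal gates by GFP/Cherry fluorescence ratio. Gate plasmids were PCR-amplified and Illumina-sequenced, and barcodes linked reads to strains. Each peptide received a protein stability index equal to the sum of each gate's read frequency times its gate number.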

Q: For AAAAVCEKWAASSWAKK [RPL14A], which protein stability index (doa10∆) is on record?
A: The protein stability index was 2.52 ± 0.052.

Q: What about the protein stability index (pdr5∆) of the same sequence?
A: The protein stability index was 3.08 ± 0.089.

Q: And the protein stability index (san1∆)?
A: The protein stability index was 2.56 ± 0.056.

Q: And the protein stability index (ubr1∆)?
A: The protein stability index was 2.68 ± 0.058.

Q: With NAEVVAGNIKCRNDAVN [BRR2] as the sequence, how does the protein stability index (doa10∆) read?
A: The protein stability index was 2.77 ± 0.11.

Q: What about the protein stability index (pdr5∆) of the same sequence?
A: Its protein stability index is 3.67 ± 0.16.

Q: And the protein stability index (san1∆)?
A: Its protein stability index is 3.05 ± 0.087.

Q: What about the protein stability index (ubr1∆) of the same sequence?
A: Its protein stability index is 2.86 ± 0.14.

Q: With LVRSIIAFDDLIENKIQ [RPN8] as the sequence, how does the protein stability index (doa10∆) read?
A: The protein stability index was 1.94 ± 0.075.

Q: What about the protein stability index (pdr5∆) of the same sequence?
A: The protein stability index was 1.92 ± 0.12.

Q: What about the protein stability index (san1∆) of the same sequence?
A: The protein stability index was 2.45 ± 0.082.

Q: What about the protein stability index (ubr1∆) of the same sequence?
A: Its protein stability index is 2.43 ± 0.099.

Q: For IHEIRLNTLNNVVEIWV [SIR3], which protein stability index (doa10∆) is on record?
A: Its protein stability index is 1.38 ± 0.051.

Q: What about the protein stability index (pdr5∆) of the same sequence?
A: The protein stability index was 1.44 ± 0.046.

Q: What about the protein stability index (san1∆) of the same sequence?
A: Its protein stability index is 1.46 ± 0.086.

Q: And the protein stability index (ubr1∆)?
A: The protein stability index was 1.55 ± 0.038.

Q: Which protein stability index (doa10∆) does the source give for EHIKQDYVASLNELYQT [NSL1] here?
A: Its protein stability index is 2.91 ± 0.062.

Q: And the protein stability index (pdr5∆)?
A: Its protein stability index is 3.1 ± 0.057.

Q: What about the protein stability index (san1∆) of the same sequence?
A: The protein stability index was 2.84 ± 0.047.

Q: And the protein stability index (ubr1∆)?
A: The protein stability index was 2.88 ± 0.053.

Q: Which protein stability index (doa10∆) does the source give for IQSSLMTNLTYFLHLSV [YCS4] here?
A: The protein stability index was 2.15 ± 0.065.

Q: What about the protein stability index (pdr5∆) of the same sequence?
A: Its protein stability index is 1.94 ± 0.049.

Q: What about the protein stability index (san1∆) of the same sequence?
A: The protein stability index was 1.89 ± 0.085.

Q: And the protein stability index (ubr1∆)?
A: Its protein stability index is 2.44 ± 0.058.

Q: For KVLLDSKDVQQIDYKLE [RPS7A], which protein stability index (doa10∆) is on record?
A: Its protein stability index is 2.69 ± 0.21.

Q: And the protein stability index (pdr5∆)?
A: The protein stability index was 3.15 ± 0.15.

Q: What about the protein stability index (san1∆) of the same sequence?
A: Its protein stability index is 3.31 ± 0.061.

Q: What about the protein stability index (ubr1∆) of the same sequence?
A: The protein stability index was 3.2 ± 0.12.

Q: What does the source list for LRRSGQIANDPSKKRRR [SMD1]?
A: protein stability index (doa10∆): 2.58 ± 0.078; protein stability index (pdr5∆): 3.01 ± 0.15; protein stability index (san1∆): 2.73 ± 0.086; protein stability index (ubr1∆): 3.23 ± 0.1

Q: For GLGYVFEFQYLTIGVKF [SRB5], which protein stability index (doa10∆) is on record?
A: Its protein stability index is 1.15 ± 0.088.

Q: And the protein stability index (pdr5∆)?
A: Its protein stability index is 1.53 ± 0.1.

Q: And the protein stability index (san1∆)?
A: Its protein stability index is 1.08 ± 0.15.

Q: What about the protein stability index (ubr1∆) of the same sequence?
A: The protein stability index was 1.31 ± 0.087.

Q: Which results are given for SWRNITNLSGGEKTLSS [SMC4]?
A: protein stability index (doa10∆): 3.37 ± 0.13; protein stability index (pdr5∆): 3.21 ± 0.078; protein stability index (san1∆): 2.81 ± 0.098; protein stability index (ubr1∆): 3.01 ± 0.11

Q: For EPLAPGNDNLIKAPTVA [YLR335W/NUP2], which protein stability index (doa10∆) is on record?
A: Its protein stability index is 2.57 ± 0.067.

Q: And the protein stability index (pdr5∆)?
A: The protein stability index was 2.77 ± 0.064.

Q: What about the protein stability index (san1∆) of the same sequence?
A: Its protein stability index is 2.53 ± 0.053.

Q: And the protein stability index (ubr1∆)?
A: The protein stability index was 2.88 ± 0.059.

Q: With YASFNDTFVHVTDLSGK [RPS14B] as the sequence, how does the protein stability index (doa10∆) read?
A: Its protein stability index is 2.31 ± 0.098.

Q: And the protein stability index (pdr5∆)?
A: Its protein stability index is 2.88 ± 0.08.

Q: And the protein stability index (san1∆)?
A: Its protein stability index is 2.52 ± 0.084.

Q: And the protein stability index (ubr1∆)?
A: Its protein stability index is 2.73 ± 0.094.

Q: Which protein stability index (doa10∆) does the source give for KEILDNILPFLWGPHGL [ECM29] here?
A: Its protein stability index is 2.67 ± 0.24.

Q: What about the protein stability index (pdr5∆) of the same sequence?
A: Its protein stability index is 3.09 ± 0.24.

Q: What about the protein stability index (ubr1∆) of the same sequence?
A: The protein stability index was 3.37 ± 0.17.

Q: With ILKEEFPKIDSLAQNDC [RPN5] as the sequence, how does the protein stability index (doa10∆) read?
A: Its protein stability index is 3.19 ± 0.15.

Q: What about the protein stability index (pdr5∆) of the same sequence?
A: Its protein stability index is 3.24 ± 0.091.

Q: And the protein stability index (san1∆)?
A: Its protein stability index is 3.22 ± 0.056.

Q: What about the protein stability index (ubr1∆) of the same sequence?
A: Its protein stability index is 3.38 ± 0.065.

Q: Which protein stability index (doa10∆) does the source give for WIRLRTNNTIRYNAKRR [RPL39] here?
A: The protein stability index was 2.88 ± 0.12.

Q: And the protein stability index (pdr5∆)?
A: Its protein stability index is 2.65 ± 0.083.

Q: And the protein stability index (san1∆)?
A: Its protein stability index is 2.93 ± 0.1.

Q: And the protein stability index (ubr1∆)?
A: The protein stability index was 2.72 ± 0.066.

Q: For LPLISTDVLEISKQRTF [YMR129W/POM152], which protein stability index (doa10∆) is on record?
A: Its protein stability index is 2.17 ± 0.068.

Q: And the protein stability index (pdr5∆)?
A: Its protein stability index is 2.74 ± 0.06.

Q: And the protein stability index (san1∆)?
A: Its protein stability index is 2.46 ± 0.062.

Q: And the protein stability index (ubr1∆)?
A: The protein stability index was 2.51 ± 0.049.

Q: For SNYSRTMTISHLLLGFQ [YJL039C/NUP192], which protein stability index (doa10∆) is on record?
A: The protein stability index was 1.82 ± 0.05.

Q: And the protein stability index (pdr5∆)?
A: Its protein stability index is 1.69 ± 0.044.

Q: What about the protein stability index (san1∆) of the same sequence?
A: Its protein stability index is 1.59 ± 0.058.

Q: What about the protein stability index (ubr1∆) of the same sequence?
A: Its protein stability index is 2.1 ± 0.034.

Q: Which protein stability index (doa10∆) does the source give for NEFQLQWGKYQTFGVDI [SWI1] here?
A: The protein stability index was 2.98 ± 0.12.

Q: And the protein stability index (pdr5∆)?
A: The protein stability index was 3.06 ± 0.09.

Q: What about the protein stability index (san1∆) of the same sequence?
A: The protein stability index was 3.09 ± 0.067.

Q: And the protein stability index (ubr1∆)?
A: The protein stability index was 3.26 ± 0.088.

Q: What does the source list for ILGMLSLADNEIALKGL [YCS4]?
A: protein stability index (doa10∆): 2.42 ± 0.053; protein stability index (pdr5∆): 2.08 ± 0.068; protein stability index (san1∆): 2.11 ± 0.089; protein stability index (ubr1∆): 2.25 ± 0.056

Q: What does the source list for IKDEIDDPFTKINTRGA [SWI1]?
A: protein stability index (doa10∆): 1.96 ± 0.22; protein stability index (pdr5∆): 1.58 ± 0.1; protein stability index (san1∆): 1.53 ± 0.13; protein stability index (ubr1∆): 2.12 ± 0.16

Q: Which results are given for PKPDKPSGRTRGRSVMK [ESC2]?
A: protein stability index (doa10∆): 3.14 ± 0.17; protein stability index (pdr5∆): 3.05 ± 0.15; protein stability index (san1∆): 3.08 ± 0.098; protein stability index (ubr1∆): 3.7 ± 0.13

Q: With ISFRSNLLKNFISSNDA [SNF6] as the sequence, how does the protein stability index (doa10∆) read?
A: The protein stability index was 2.77 ± 0.12.

Q: What about the protein stability index (pdr5∆) of the same sequence?
A: Its protein stability index is 1.75 ± 0.086.

Q: What about the protein stability index (san1∆) of the same sequence?
A: Its protein stability index is 2.35 ± 0.21.

Q: And the protein stability index (ubr1∆)?
A: The protein stability index was 2.27 ± 0.074.

Q: For LHPYNSRGLFEKKLMQD [YDL116W/NUP84], which protein stability index (doa10∆) is on record?
A: Its protein stability index is 2.89 ± 0.18.

Q: And the protein stability index (pdr5∆)?
A: Its protein stability index is 3.28 ± 0.16.

Q: And the protein stability index (san1∆)?
A: Its protein stability index is 2.86 ± 0.1.

Q: And the protein stability index (ubr1∆)?
A: The protein stability index was 2.91 ± 0.13.

Q: Which results are given for HKQGSSYVAVLGMGKAV [POP7]?
A: protein stability index (doa10∆): 1.69 ± 0.077; protein stability index (pdr5∆): 1.71 ± 0.053; protein stability index (san1∆): 1.66 ± 0.082; protein stability index (ubr1∆): 1.86 ± 0.062

Q: For SGKSNTSNDASNKKETK [ITC1], which protein stability index (doa10∆) is on record?
A: The protein stability index was 3.14 ± 0.076.

Q: And the protein stability index (pdr5∆)?
A: The protein stability index was 3.26 ± 0.073.

Q: And the protein stability index (san1∆)?
A: Its protein stability index is 3.29 ± 0.058.

Q: And the protein stability index (ubr1∆)?
A: The protein stability index was 3.18 ± 0.06.

Q: With MVALISKKRKLVADGVF [RPS3] as the sequence, how does the protein stability index (pdr5∆) read?
A: Its protein stability index is 1.85 ± 0.18.

Q: And the protein stability index (san1∆)?
A: Its protein stability index is 1.53 ± 0.13.

Q: What does the source list for NMLICAPTGSGKTNIAL [BRR2]?
A: protein stability index (doa10∆): 2.55 ± 0.079; protein stability index (pdr5∆): 3.12 ± 0.08; protein stability index (san1∆): 2.12 ± 0.091; protein stability index (ubr1∆): 2.98 ± 0.053
